Experimental data: a protein production outcome set (Wang et al. 2014)

Assay: label from the status in PepcDB records
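Further: failed if final PepcDB status was selected cloned or expressed and not failed if soluble or beyond.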

Sequence	protein production
MLETYALKNGAVFISDAHFLPKSPHLIHTLKELLSAKPPQVFFMGDIFHVLVGYLPLDKEQQKIIDLIHALSEISQVFYFEGNHDFSMRFVFNSKVMVFERQNQPVLFQYDNKRFLLAHGDLFITKAYEFYITQLTSTWARFFLTFLNLLSFKTLYPLFKKLIYQKPVRLWELEPKELQSFIEKRLKAYQNYIKDLNIGSIDGIIEGHFHLKSGAKIPLNTPIYCPLPSFYYEQSLFKVSSSVLEPSQNKDA	failed
MLEVHIPSVGPEAEGPRQSPEKSHMVFRVEVLCSGRRHTVPRRYSEFHALHKRIKKLYKVPDFPSKRLPNWRTRGLEQRRQGLEAYIQGILYLNQEVPKELLEFLRLRHFPTDPKASNWG	not failed
MLFDEKEILAITRWAKLYANQSPDRILLGSNDIPPEYRAAVATQIELWPRLRNKLPQWPGISSLYIPSRLSLEQSSGAVTSSYKSRFIREGTKVVDLTGGLGIDFIALMSKASQGIYIERNDETAVAARHNIPLLLNEGKDLNILTGDFKEYLPLIKTFHSDYIYVDPARRSGADKRVYAIADCEPDLIPLAAELLPFCSSILAKLSPMIDLWDTLQSLPHVQELHVVAAHGEVKELLVRMSLNEATIPPEKVPIHAVNLLSEDTVIPFIFTMEEERSISVPYADSIDKYVYEPHTALFKAGAFKTVAYRLGLRKLHPNSHLYTSEAYESAFPGRTFVLEEIIPFSTSVLKQLGKVVPRASISCRNFPLSPIELRQRSKMADGGEKTLMGTTMADGKKVLLLLRKAE	failed
MLFIPPPLLCLFIAIAMYFLPKIASYSVHFSVIVFVISLSFLIALSSVMQSLYVKPPLILVTLKAQQN	failed
MLFKRPDTETLYFALVNKDPAYEGVAYVCVTSTKIFCRFTCTARKPKIENCRFRETITECLEAGFRPCKRCKPMLSYGTPDGTVTALLTALENEPARRWREEDVVALGHDPSTVRRSFKRRFGMSFLEIARLRRVGDAAESLASGEAVIGAQIDAGYESGSGFRSAINQLFGTSPAAMKGRGFLKGDWIDTPIGPMLAVADDHALHLLEFADRPALPAELKRLKARTGADMVLGRTAVTGQIAAELAAYFAGRSGSFETRLAGHGTPFERDVWRNLREIPAGEIVSYSSLATAMERPTAVRAVARANGANQLAIVVPCHRVLGADGSLTGYGGGLWRKKWLIEHERRMARGLEHHHHHH	not failed
MLFSIVVHQMILFFSILLVGNVAAKQGVIQENYLPDLAKLVSKIFLPVLIFYMTYAGTTRQMVWENAAMIGLAALFYVVISAVTWIIAKGLRPAGDKAKVFQFAFIFGNTGFVGVPLLIALFPKDGILYLALFSIVDQLLFWTYGVYLATASDKKAKITLKSFVNPNIVAIALALIFIMIGAKLPTVIDDTLQTIKNAVGAMAMIYLGALIFYSDWKTAFKTKDLYFGIVVKMIILPILLGKLLLMTGLPNNMIWSMIILMSLPTMTVVPMIAKLYGHEGAYAAGITAATLAVSIVTIPVVVFFTT	failed
MLFSSASFVPIVRRMSRPTILPAYILATLPLVMALLATAVSIGTGDEVVNFFRQYRQAHPALTACMQVITDFGNPLLYLVYGAIFFRARKRGDRHDMRFVAVYIVVQLLVSFLAVRILKIGFGMPRPGTEGPAIPFSFKGVYNSFPSGHTTEIVGAVVPLAWRCKALLPTLALGIYMGIVGYSRIYLGMHHITDVFAGLLLGSVAAWIIHRLADRTPS	failed
MLFYLYVTRCKQLLNYNNMETDNGDKEKSEEDDLCALKDALEAVILFQGLSEYQKKLMFPNLKNLGAETIKELIDEWKELNVEELNLNIKKQTFFTKFANASWSLMLLIQQENNFCFWMFYVIPTSLFFVCCVLLHLLNDGS	failed
MLGLHGRKPAQVIVEPVAKLMIKLKVTPNQLTLVSAGLTVGVALLLIPTGHLIWAAVLTGLFAAFDMIDGTVARMQGGGTKFGATLDATCDRITDGALFGAITWWLVYSYDAPQALVAASLVCLVASQVISYVKARGEASGFTMDGGLVERPERLIVSLVGLGLTGMGVPYAIDVALWALAAGSIYTVVQRLVMAGKSPLAKEFTKAPAGAKADYSNTK	failed
MLGLVLLYVGIVLISNGICGLTKVDPKSTAVMNFFVGGLSIICNIVVITYSALHPTAPVEGAEDIAQVSHHLTSFYGPATGLLFGFTYLYAAINHTFGLDWRPYSWYSLFVAINTIPAAILSHYSDMLDDHKVLGITEGDWWAIIWLAWGVLWLTAFIENILKIPLGKFTPWLAIIEGILTAWIPAWLLFIQHWV	failed
MLGSIFTASAVVMILLGLGMLTVFTQRLVDQKIDIASSEIDRARVIVEEQITASGASTSVQARVNSARAALSSLGTSGGTETNAAYDPVVLVNNDDLVVSPEGYQIPERLRYFVSENQVSYQFSSIDQGDGSSYQALIIGTPTESDIPNLQVYLVFSMESDESSLALMRGLLSAALLIVVVLLVGIAWLATQQVTAPVRSASRIAERFAQGKLRERMVVEGEDEMARLAVSFNAMAESLSAQITKLEEYGNLQRQFTSDVSHELRTPLTTVRMAADLIADSEDELSPGARRASQLMNRELDRFESLLSDLLEISRHDAGVAELSTALHDVRIPVRSALEQVQHLATELDVELLVNLPEEAINIQGDSRRIERIIRNLLANAIDHSKGLPVELKVADNVDAVAIVVIDHGVGLKPGQDELVFNRFWRADPSRVRHSGGTGLGLAISREDAMLHGGNLDAAGTIGVGSIFRLVLPKEPHGNYREAPIPLIAPETPWEGEQQ	failed
MLHDWGVIAAALAYIGFLFVVASWGDRLSQGQRERAGGLIYPLSLAIYCTSWTFFGSVGFASRSSFDFLAIYVGPVLVVLVATPLLRRVIRLAKSQNITSIADFIAARYGKSQKVAATVAIIAIIGSVPYIALQLKAVSSSLQTILGDDHNIADIPIVGDIALIVAMAMALFTVLFGTRQASATEHQHGLMLAVATESIVKLVAFLAAGIFVTFWMFSPSALIERAMQMPEAVRALDSTSPANFLTMTALSFCAFMMLPRQFHVSVVENSNEAEVGRARWLFPLYLVAINLFVIPIALAGLVKFPFGKVDSDMYVLALPIDADAPMLSVAVFIGGLSAATAMVIVECVALAVMVSNDLVMPLVLKRHGAPRPDEQRNFGRFLLTVRRVAIFAILILAYLYYRALGNTQLAAIGLLSFAAIAQFAPSFFGGLIWRRATARGAIGGLLVGFAVWAYTLFIPSFMENSTTGLLLLQHGPWGIEALRPQALFGSDLPPLLHGVLWSLSLNLIAYILLSLLRQPSSIERLQAEVFVPDALTPMTPAFRRWRTTVTVQDIVGAVSQYLGPERARDSFRSFAAGRRITLDPAAPADFELLKHAEHLIASSIGAASSRLVLSLLLRKRTVSAEAALKLLDDSHAALHFNREILQTALNHVRQGIAVFNPELQLICSNRQFGEILGLPPHIIQIGIPLIEILEFLASNSIAPIDAEAHTQMRMAAYTTEGEPFIERFPDRHLVVEVRANRMPDGGLVITFSDVTPSFEAAEALERANATLERRVRERTEELTRLNSQLALAKSTAEEANISKTRFLAAASHDILQPLNAARLYATSLVERQNGGEDSRLVENIDESLQAIEEIIGALLDISRLDAGAMTPSLSNFVIGDLMRSLEIEFSPTARAKGLELTFVPCSLPVQSDRLMLRRLMQNLISNAIKYTPQGRVLVGCRRQGQSLRIGIYDTGVGVPILKRGEIFKEFHRLEQGARIARGLGLGLSIVERLARVLNHGIALDSNRGGGSCFSVTVPVAEAVNHTAAVTSATPLSRASMSGILVVCIENDPAILDGMKTLLTTWDAKVIAVADPEAAIRAIESSEQRVTGLLVDYHLDRGNGIAAIREIRARFGQSIPAILITADRSPGVRASARQEEIAVLNKPVKAASLRALLSQWHAQQSVVAAE	failed
MLHIDDAMIEDAVTPQAAQEVLHAAFLDFGRGSAAMQRRVRTEAGGVKLSTLGAVIPGQGVAGAKVYTTIKGQFQFVILLFSAADGRPLATCDAGTLTRKRTAACTVLAAGALARPRSSVLGLFGAGTQGVEHAAQLSARFALEAILVHDPHASPEVVERIGRRCGVPARMAAPADIAAQADIVVTATRSATPLFAGQALRAGAFVGAIGSSLPHTRELDDEALRRARAVVVEWREQTLSEAGDLVLAAPDTGLDAKVVELADVLAGRATARQADEDIVIYKSVGVGLEDVALAGYAYRRLAAQRGWPAP	failed
MLHKRASEANDKNDNTIIGSDLASSKKRRIDFTESSSDKSSSILASGSSRGFHGDSVVQQIDMAFGNSNRQEIDEDLHSRQLAVYGRETMRRLFASNVLISGMHGLGAEIAKNLILAGVKSVTLHDERVVELWDLSSNFVFSEDDVGKNRADASVQKLQDLNNAVVVSSLTKSLNKEDLSGFQVVVFSDISMERAIEFDDYCHSHQPPIAFVKADVRGLFGSVFCDFGPEFAVLDVDGEEPHTGIIASISNENQAFISCVDDERLEFEDGDLVVFSEVEGMTELNDGKPRKIKSTRPYSFTLDEDTTNYGTYVKGGIVTQVKQPKLLNFKPLREALKDPGDFLFSDFSKFDRPPLLHLAFQALDHFKAEAGRFPVAGSEEDAQKLISIATAINTGQGDLKVENVDQKLLRHFSFGAKAVLNPMAAMFGGIVGQEVVKACSGKFHPLFQFFYFDSVESLPSEPVDSSDFAPRNSRYDAQISVFGAKFQKKLEDAKVFTVGSGALGCEFLKNLALMGVSCGSQGKLTVTDDDIIEKSNLSRQFLFRDWNIGQAKSTVAASAAAVINPRFNIEALQNRVGAETENVFDDAFWENLTVVVNALDNVNARLYVDSRCLYFQKPLLESGTLGTKCNTQSVIPHLTENYGASRDPPEKQAPMCTVHSFPHNIDHCLTWARSEFEGLLEKTPAEVNAYLSSPVEYTNSMMSAGDAQARDTLERIVECLEKEKCETFQDCLTWARLRFEDYFVNRVKQLIYTFPEDAATSTGAPFWSAPKRFPRPLQYSSSDPSLLNFITATAILRAETFGIPIPEWTKNPKEAAEAVDRVIVPDFEPRQDAKIVTDEKATTLTTASVDDAAVIDDLIAKIDQCRHNLSPDFRMKPIQFEKDDDTNYHMDVIAGLANMRARNYSIPEVDKLKAKFIAGRIIPAIATSTAMATGLVCLELYKVLDGGHKVEAYRNTFANLALPLFSMAEPLPPKVVKHRDMAWTVWDRWVLKGNPTLREVLQWLEDKGLSAYSISCGSCLLFNSMFTRHKERMDKKVVDLARDVAKVELPPYRNHLDVVVACEDEDDNDVDIPLVSIYFR	failed
MLHLKVQFLDDSQKIFVVDQKSSGKALFNLSCSHLNLAEKEYFGLEFCSHSGNNVWLELLKPITKQVKNPKEIVFKFMVK	failed
MLHWISLLCAGCLEMAGVALMNQYAKEKSVKWVLLIIVGFAASFSLLSYAMETTPMGTAYAVWTGIGTAGGALIGILFYKEQKDAKRIFFIALILCSAVGLKILS	failed
MLIFLISSAIVLLADLLITYQIYREIKVRREVSGNQGGFASVIIPVRGLDVNAEENLKSLLSQDYSAYEVIYVVDDENDPIVPILRKYNVKVVVSNKNCDICSGKINAQLEGLKHARGDIIVFADSDTWFPKYWLKELVSPLSNYVATTVFSWAKPVRLTIGNIIRAGFWTLGFESQAVGGTFLWGGSMAFKREFFDERVIQELKTQWCDDCTLTRIAKERGKLGFVFNAMPLNFYDETQLITWSKRQLITVWRYSRRGVNGFIIVAIFMLAFLFLIPFNVFAITPFIFWVFKNILRSYKIGLSNSIIPSLASILAIFYSLFLIALTLREKNIIWRGKIYKV	failed
MLIKLTGGTVYDPANGIDGQVRNLFIRDGRIVHSLNGATPDQEYDLRGKVVMAGAIDMHTHIGGGKVT	failed
MLIKQTDYFRIYRVINSLLISQNADPASASMYFSTFGAFILQQHYKVKAVPKGGLAAYNLGGTVLLFADHREDGYVTGAGENFHCWVEADGWAIDFMAPAFSEGTDALAVPAKMFQRPLSAMAASINDLGQSGDFFYRSEPEATARRFADWHKQAMIGDMASVAANWFRKSPKQMAASLSVTDRDGKARTVPLTGEMLTGAW	not failed
MLINLGQRLENLRTLVGFLKAARAESLDRVIAIADSLNKTEIAAQSRRWMLSHPAVAQLAAENYAPARPALEALNQLPTGTLGQAYASLLLGQNLSPDDLQPAKPATNADEYIVERLRVTHDIAHVITGFGTDPASELGLQAFNLRQNRTPLAVLLIAGGLLKTIKEGRDPAPILRQVARGIELADKAELLVAQRWEDHWDWPLEQWRQVLNLPV	failed
